Here are results for 3 molecules from patent JP2016028048A (dated 2016).

Assay [1] deals with T1, ヒト組織因子経路インヒビター (human TFPI) (human, UniProt P10646 29-304, limits assumed).
T1 construct: Coated on Maxisorp plates (ELISA) or amine-coupled to a CM5 chip (Biacore); also called ヒトTFPI; hTFPI
T1 sequence (looked up): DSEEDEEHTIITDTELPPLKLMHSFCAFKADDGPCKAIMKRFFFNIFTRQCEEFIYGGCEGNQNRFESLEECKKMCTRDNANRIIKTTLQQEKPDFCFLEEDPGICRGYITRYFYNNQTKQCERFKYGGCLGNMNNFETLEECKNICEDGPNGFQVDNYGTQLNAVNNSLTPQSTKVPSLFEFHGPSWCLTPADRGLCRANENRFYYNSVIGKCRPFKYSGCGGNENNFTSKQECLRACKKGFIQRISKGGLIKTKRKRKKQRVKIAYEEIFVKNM
The experiment in a line: ELISA on human TFPI-coated plate.

In assay [2] the target is T2, マウスTFPI (mouse TFPI) (mouse, UniProt O54819 29-289, limits assumed).
T2 construct: Coated on plates (ELISA) or amine-coupled to a CM5 chip (Biacore); also called mTFPI; m-TFPI
T2 sequence (looked up): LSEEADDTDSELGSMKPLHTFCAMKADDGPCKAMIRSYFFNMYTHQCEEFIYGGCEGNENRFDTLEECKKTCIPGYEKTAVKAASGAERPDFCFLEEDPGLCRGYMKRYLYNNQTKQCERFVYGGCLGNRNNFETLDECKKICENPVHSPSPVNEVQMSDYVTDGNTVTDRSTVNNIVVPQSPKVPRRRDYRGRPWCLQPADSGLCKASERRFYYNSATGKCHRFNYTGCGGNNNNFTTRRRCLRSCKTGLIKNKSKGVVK
The experiment in a line: ELISA on mouse TFPI-coated plate. For orientation: ELISA stands for enzyme-linked immunosorbent assay.

The target in assay [3] is T1, ヒト組織因子経路インヒビター (human TFPI). The experiment in a line: ELISA on human TFPI-coated plate; IgG against the Fab.
Assay [4] has as its target T2, マウスTFPI (mouse TFPI). The experiment in a line: ELISA on mouse TFPI-coated plate; IgG against the Fab.
Assay [5] addresses T1, ヒト組織因子経路インヒビター (human TFPI). The experiment in a line: ELISA, Fab in bacterial lysate on human TFPI-coated plate.

B1: TP-2G6 (Fab, V domains shown)
VH: QVQLQQSGPGLVKPSQTLSLTCAISGDSVSSSSAAWSWIRQSPGRGLEWLGIIYYRSKWYNDYAVSVKSRITINPDTSKNQFSLQLNSVTPEDTAVYYCARHSMVGFDVWGQGTLVTVSS
VL: DIVLTQSPATLSLSPGERATLSCRASQYVTSSYLAWYQQKPGQAPRLLIYGSSRATGVPARFSGSGSGTDFTLTISSLEPEDFATYYCQQYSSSPITFGQGTKVEIKR
notes: Human Fab (HuCal Gold), made in E. coli TG1; also called 2G6-Fab
Usually EC50 stands for the concentration needed to bring the measured effect to its halfway point. On to B1, for which the concentration giving a half-maximal response (EC50) came out at 480 pM in assay [1] and 5180 pM with マウスTFPI (mouse TFPI) [2].

B2: 2G6-IgG (antibody, V domains shown)
VH: QVQLQQSGPGLVKPSQTLSLTCAISGDSVSSSSAAWSWIRQSPGRGLEWLGIIYYRSKWYNDYAVSVKSRITINPDTSKNQFSLQLNSVTPEDTAVYYCARHSMVGFDVWGQGTLVTVSS
VL: DIVLTQSPATLSLSPGERATLSCRASQYVTSSYLAWYQQKPGQAPRLLIYGSSRATGVPARFSGSGSGTDFTLTISSLEPEDFATYYCQQYSSSPITFGQGTKVEIKR
notes: also called IgG-2G6; TP-2G6 after conversion to IgG
For the molecule B2, the EC50 is 220 pM in assay [1] and 510 pM in the assay with マウスTFPI (mouse TFPI) [2]. The “fold change of EC50 against 2G6-Fab” value is 2 倍 in assay [3] and 10 倍 with マウスTFPI (mouse TFPI) [4].

B3: TP-2B8 (Fab, V domains shown)
VH: QVQLVQSGAEVKKPGASVKVSCKASGYTFTGNSMHWVRQAPGQGLEWMGTIFPYDGTTKYAQKFQGRVTMTRDTSISTAYMELSSLRSEDTAVYYCARGVHSYFDYWGQGTLVTVSS
VL: DIELTQPPSVSVAPGQTARISCSGDNLRGYYASWYQQKPGQAPVLVIYEDNNRPSGIPERFSGSNSGNTATLTISGTQAEDEADYYCQSWDSPYVHVFGGGTKLTVLG
notes: Human Fab (HuCal Gold), made in E. coli TG1
For the molecule B3, in assay [5], the binding result was “binds”.
